{
  "source": "paper PMC6582324",
  "about": "(Nucleic Acids Research, 2019)",
  "binders": {"B1": {"name": "RsgI1N, N-terminal cytoplasmic inhibitory domain of anti-σI factor RsgI1, wild type (domain or fragment, C. thermocellum ATCC 27405)", "chain": "MNRLGIIYEIQGMKAVVLTSEGEFLIIRRRKDMKVGQQVSFENEDIYNVRGK"}, "B2": {"name": "RsgI1N Y8L-E9K (domain or fragment, C. thermocellum ATCC 27405)", "chain": "B1 chain with Y8L, E9K"}, "B3": {"name": "RsgI1N V16I (domain or fragment, C. thermocellum ATCC 27405)", "chain": "B1 chain with V16I"}, "B4": {"name": "RsgI1N L18F (domain or fragment, C. thermocellum ATCC 27405)", "chain": "B1 chain with L18F"}, "B5": {"name": "RsgI1N V35I (domain or fragment, C. thermocellum ATCC 27405)", "chain": "B1 chain with V35I"}, "B6": {"name": "RsgI1N E21K (domain or fragment, C. thermocellum ATCC 27405)", "chain": "B1 chain with E21K"}, "B7": {"name": "RsgI1N L18I (domain or fragment, C. thermocellum ATCC 27405)", "chain": "B1 chain with L18I"}, "B8": {"name": "RsgI1N V16K (domain or fragment, C. thermocellum ATCC 27405)", "chain": "B1 chain with V16K"}, "B9": {"name": "RsgI1N E9K (domain or fragment, C. thermocellum ATCC 27405)", "chain": "B1 chain with E9K"}, "B10": {"name": "RsgI1N E9K-E23K (domain or fragment, C. thermocellum ATCC 27405)", "chain": "B1 chain with E9K, E23K"}, "B11": {"name": "RsgI1N E9K-E21K (domain or fragment, C. thermocellum ATCC 27405)", "chain": "B1 chain with E9K, E21K"}, "B12": {"name": "RsgI1N Y8L-V35R (domain or fragment, C. thermocellum ATCC 27405)", "chain": "B1 chain with Y8L, V35R"}, "B13": {"name": "RsgI1N F24I (domain or fragment, C. thermocellum ATCC 27405)", "chain": "B1 chain with F24I"}, "B14": {"name": "RsgI1N Y8L (domain or fragment, C. thermocellum ATCC 27405)", "chain": "B1 chain with Y8L"}, "B15": {"name": "RsgI1N Y8I (domain or fragment, C. thermocellum ATCC 27405)", "chain": "B1 chain with Y8I"}, "B16": {"name": "RsgI1N Y8L-E9K-V35R (domain or fragment, C. thermocellum ATCC 27405)", "chain": "B1 chain with Y8L, E9K, V35R"}, "B17": {"name": "RsgI1N E9G (domain or fragment, C. thermocellum ATCC 27405)", "chain": "B1 chain with E9G"}, "B18": {"name": "RsgI1N E23K (domain or fragment, C. thermocellum ATCC 27405)", "chain": "B1 chain with E23K"}, "B19": {"name": "RsgI1N V35K (domain or fragment, C. thermocellum ATCC 27405)", "chain": "B1 chain with V35K"}, "B20": {"name": "PSigI1 -35 region (dsDNA)", "DNA 1": "ATCGATAATATACACAAAAA", "DNA 2": "TTTTTGTGTATATTATCGAT"}},
  "note": "Changes are numbered by the printed parent chain. Names and notes keep the numbering of the source.",
  "data": [
    {"target": "T1, SigI1C, C-terminal domain of σI factor SigI1 (C. thermocellum ATCC 27405, UniProt A3DBH0 141-249)", "T1 sequence": "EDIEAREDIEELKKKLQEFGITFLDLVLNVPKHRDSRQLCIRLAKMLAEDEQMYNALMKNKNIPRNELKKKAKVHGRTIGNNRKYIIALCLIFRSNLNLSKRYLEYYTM", "assay": "SPR", "units": {"Kd": "nM"}, "values": [
      {"binder": "B1", "Kd": 0.011},
      {"binder": "B2", "Kd": 0.16},
      {"binder": "B3", "Kd": 0.36},
      {"binder": "B4", "Kd": 0.0031},
      {"binder": "B5", "Kd": 0.023},
      {"binder": "B6", "Kd": 0.016},
      {"binder": "B7", "Kd": 0.67},
      {"binder": "B8", "Kd": 2.4},
      {"binder": "B9", "Kd": 0.097},
      {"binder": "B10", "Kd": 6.4},
      {"binder": "B11", "Kd": 0.02},
      {"binder": "B12", "Kd": 0.04},
      {"binder": "B13", "Kd": 0.19},
      {"binder": "B14", "Kd": 0.084},
      {"binder": "B15", "Kd": 0.45},
      {"binder": "B16", "Kd": 9.3},
      {"binder": "B17", "Kd": 0.071},
      {"binder": "B18", "Kd": 0.36},
      {"binder": "B19", "Kd": 0.0065}
    ]},
    {"target": "T2, SigI1C K209E/R217E (Clostridium thermocellum ATCC 27405, UniProt A3DBH0 141-249, K209E;R217E)", "T2 sequence": "T1 sequence with K69E, R77E", "assay": "EMSA", "values": [
      {"binder": "B20", "binding result": "no binding"}
    ]},
    {"target": "T3, SigI1C (Clostridium thermocellum ATCC 27405, UniProt A3DBH0 141-249)", "T3 sequence": "T1 sequence", "assay": "EMSA", "values": [
      {"binder": "B20", "binding result": "binds"}
    ]}
  ]
}
